The values that follow come from patent US20230348578A1, “CONFORMATION-SPECIFIC ANTIBODIES THAT BIND TAU PROTEIN AND USES THEREOF” (Beth Israel Deaconess Medical Center, Inc., priority 2020, published 2023).

Residue numbers refer to the chain shown, from its start.

Test [1] deals with cis P-tau (Homo sapiens, UniProt P10636). Put plainly: Elimination of cis P-tau in cultured neurons stressed by hypoxia. Type of test: cell-based. More on the design: endogenous in cells. The following applies: 2.5 μg/ml, 5 μg/ml and 10 μg/ml. As for the experimental part:
(§1) The binding affinity of selected humanized antibody clones was determined by Biacore assay using a wild-type P-tau peptide and its pure cis or cis-locked, and pure trans counterparts. The […] of the selected humanized cis mAb variants was determined by assessing their ability to eliminate cis P-tau in stressed neurons in cell cultures. Functional restoration of selected clones was determined by their ability to restore risk-taking behavior after 3-hit or 7-hit repetitive TBI in mice, as assayed by elevated plus maze.
Cultured neurons were subjected to neuron stress by hypoxia in the presence or absence of different concentration of humanized antibody variants, followed by immunoblotting analysis to analyze cis P-tau levels in the stressed neurons, the results of which are provided in FIGS. 2-4. FIG. 2 is an immunostaining image showing the ability of humanized cis pT231-tau monoclonal antibody variants to eliminate cis P-tau in neurons under hypoxic conditions. Cis P-tau levels are reported in red and blue reports nuclear staining (Hoechst) to represent all neurons in the experiment. […] Cis P-tau levels are reported in red and blue reports nuclear staining (Hoechst) to represent all neurons in the experiment. […] IgG is a negative control. The cis-pTau monoclonal antibody C113 serves as a positive control.

For test [2], the target named is cis pT231-tau (P-tau peptide, pure cis or cis-locked). Kind of test: Biacore assay of binding affinity of humanized cis mAb variants.
Excerpt: We next started to characterize and select lead humanized mAbs. We expressed and purified humanized mAb variants using a CHO expression system. We transfected over 45 plasmid DNA pairs of heavy and light chain cDNAs into CHO cells to express over 225 humanized cis mAb variants in various combinations. To evaluate the target binding specificity and affinity of our mouse mAbs, we established a simple and quantitative ELISA to screen the clones using a wild-type P-tau peptide and its pure cis or cis-locked, and pure trans counterparts and determined the binding affinity for selected clones using Biacore assays. We screened over 200 humanized cis mAb variants. […] Furthermore, one-tenth of humanized cis mAb variants were also able to recognize cis P-tau in human AD and TBI brains based on immunostaining analysis.
as §1
In general terms: SPR reads the build-up and loss of mass on a sensor chip optically.

Sequence of cis P-tau (P10636 1-441 isoform P10636-8): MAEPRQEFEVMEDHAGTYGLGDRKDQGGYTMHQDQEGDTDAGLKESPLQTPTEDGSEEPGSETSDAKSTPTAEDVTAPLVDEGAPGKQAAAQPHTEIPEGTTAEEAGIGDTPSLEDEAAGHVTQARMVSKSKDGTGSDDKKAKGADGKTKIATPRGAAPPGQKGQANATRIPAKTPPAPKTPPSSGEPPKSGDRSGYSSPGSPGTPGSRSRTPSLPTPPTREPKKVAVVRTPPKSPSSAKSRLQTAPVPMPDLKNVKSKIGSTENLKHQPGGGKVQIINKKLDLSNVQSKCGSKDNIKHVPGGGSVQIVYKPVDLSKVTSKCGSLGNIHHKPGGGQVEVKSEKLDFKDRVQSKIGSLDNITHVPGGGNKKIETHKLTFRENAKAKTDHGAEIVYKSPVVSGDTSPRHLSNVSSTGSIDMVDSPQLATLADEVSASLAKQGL

B1: C113: previously described murine cis-pTau monoclonal antibody (U.S. Pat. No. 9,688,747); SEQ ID NO: 24 and 15; positive control (antibody, V domains shown)
VH: QVQLQQPGAELVKPGASVKMSCKASGYTFTSYWIHWVKQRPGQGLEWIGVIDPSDSYTRYNQKFKGKATLTVDTSSSTAYMQLSSLTSEDSAVYYCTTWEVDYWGQGTTLTVSS
VL: DVVMTQTPLSLPVSLGDQASISCRSSQSLVHSDGNTYLHWYLQKPGQSPKLLIYKVSNRFSGVPDRFSGSGSGTDFTLKISRLEAEDLGVYFCSQSTHVPWTFGGGTKLEIK
notes: previously described murine cis-pTau monoclonal antibody (U.S. Pat. No. 9,688,747); positive control
With B1, the “elimination of cis P-tau in neurons under hypoxic conditions (images)” value in test [1] is given as “elimination of cis P-tau”.

B2: HT16: humanized cis-pThr231-tau mAb; heavy chain variable domain SEQ ID NO: 27, light chain variable domain SEQ ID NO: 17 (antibody, V domains shown)
VH: QVQLVQSGAEVKKPGASVKVSCKASGYTFTSYWIHWVRQRPGQGLEWIGVIDPSDSYTRYNQKFKGRVTLTVDTSASTAYMELSSLRSEDTAVYYCTTWEVDYWGQGTLVTVSS
VL: B1 VL with T7S, S14T, D17Q, Q18P, H39N, K50Q, L83V, L88V, L109V
In the case of B2, the Kd in test [2] was found to be 3.26 nM.

B3: HT17: humanized cis-pThr231-tau mAb; heavy chain variable domain SEQ ID NO: 28, light chain variable domain SEQ ID NO: 17 (antibody, V domains shown)
VH: B2 VH with L70I, V72R
VL: B1 VL with T7S, S14T, D17Q, Q18P, H39N, K50Q, L83V, L88V, L109V
In the case of B3, the Kd in test [2] was 4940 nM.

B4: HT15: humanized cis-pThr231-tau mAb; heavy chain variable domain SEQ ID NO: 26, light chain variable domain SEQ ID NO: 17 (antibody, V domains shown)
VH: B2 VH with V20M, R38K, V68A
VL: B1 VL with T7S, S14T, D17Q, Q18P, H39N, K50Q, L83V, L88V, L109V
Take B4: the Kd in test [2] was 33.4 nM.

B5: HT14: humanized cis-pThr231-tau mAb; heavy chain variable domain SEQ ID NO: 25, light chain variable domain SEQ ID NO: 17 (antibody, V domains shown)
VH: B1 VH with Q5V, P7S, V12K, K67R, S76A, L110V
VL: B1 VL with T7S, S14T, D17Q, Q18P, H39N, K50Q, L83V, L88V, L109V
Turning to B5, the equilibrium dissociation constant (Kd) in test [2] was 30.2 nM.

B6: HT6: humanized cis-pThr231-tau mAb; heavy chain variable domain SEQ ID NO: 26, light chain variable domain SEQ ID NO: 18 (antibody, V domains shown)
VH: B2 VH with V20M, R38K, V68A
VL: B1 VL with T7S, S14T, D17Q, Q18P, K50Q, F60D, L83V, L88V, L109V
B6: the Kd in test [2] turned out to be 6.48 nM.

B7: HT13: mouse-human chimera control antibody; heavy chain variable domain SEQ ID NO: 24, light chain variable domain SEQ ID NO: 15 (antibody, V domains shown)
VH: B1 VH
VL: B1 VL
In the case of B7, in test [1], the “elimination of cis P-tau in neurons under hypoxic conditions (images)” value is on record as “elimination of cis P-tau”. The dissociation constant Kd in test [2] came out at 1.26 nM.

B8: HT12: humanized cis-pThr231-tau mAb; heavy chain variable domain SEQ ID NO: 28, light chain variable domain SEQ ID NO: 19 (antibody, V domains shown)
VH: B2 VH with L70I, V72R
VL: B1 VL with T7S, S14T, D17Q, Q18P, K50Q, L83V, L88V, F92Y, L109V
With B8, the Kd in test [2] came to 3.55 nM.

B9: HT4: humanized cis-pThr231-tau mAb; heavy chain variable domain SEQ ID NO: 28, light chain variable domain SEQ ID NO: 16 (antibody, V domains shown)
VH: B2 VH with L70I, V72R
VL: B1 VL with T7S, S14T, D17Q, Q18P, K50Q, L83V, L88V, L109V
With B9, the Kd in test [2] is 2.42 nM.

B10: HT7: humanized cis-pThr231-tau mAb; heavy chain variable domain SEQ ID NO: 27, light chain variable domain SEQ ID NO: 18 (antibody, V domains shown)
VH: B2 VH
VL: B1 VL with T7S, S14T, D17Q, Q18P, K50Q, F60D, L83V, L88V, L109V
Consider B10, for which the dissociation constant (Kd) in test [2] was 10.8 nM.

B11: HT5: humanized cis-pThr231-tau mAb; heavy chain variable domain SEQ ID NO: 25, light chain variable domain SEQ ID NO: 18 (antibody, V domains shown)
VH: B1 VH with Q5V, P7S, V12K, K67R, S76A, L110V
VL: B1 VL with T7S, S14T, D17Q, Q18P, K50Q, F60D, L83V, L88V, L109V
For the molecule B11, in test [2], the dissociation constant (Kd) is 6.91 nM.

B12: HT11: humanized cis-pThr231-tau mAb; heavy chain variable domain SEQ ID NO: 27, light chain variable domain SEQ ID NO: 19 (antibody, V domains shown)
VH: B2 VH
VL: B1 VL with T7S, S14T, D17Q, Q18P, K50Q, L83V, L88V, F92Y, L109V
Consider B12, for which the Kd in test [2] was found to be 3.99 nM.

B13: HT9: humanized cis-pThr231-tau mAb; heavy chain variable domain SEQ ID NO: 25, light chain variable domain SEQ ID NO: 19 (antibody, V domains shown)
VH: B1 VH with Q5V, P7S, V12K, K67R, S76A, L110V
VL: B1 VL with T7S, S14T, D17Q, Q18P, K50Q, L83V, L88V, F92Y, L109V
Take B13: the Kd in test [2] worked out at 1.89 nM.

As a reminder, the Kd is the equilibrium constant for the complex coming apart.
